For data set [1], the target named is ecHOP1-HORMA (2xStrepII-ecHOP1-HORMA, residues 1-274) (Ectocarpus). The data set can be described thus: ITC. (In general: Isothermal titration calorimetry measures the heat released or taken up as one component is titrated into another.)
The test system of data set [2] is His6-SUMO-ecHOP1-wHTH WT (Ectocarpus (E. siliculosus; model brown alga)). The data set can be described thus: EMSA. A general note: Mobility shift assays separate free from complexed probe on a gel.

Take “MBP-ecRED1 CM1 (putative closure motif 1 of ecRED1) (domain or fragment)”: the Kd (commonly the concentration at which binding is half-saturated) in data set [1] amounted to 60.3 µM.
Same read-out and setting: to “MBP-ecHOP1 CM2-1 (closure motif 2 of ecHOP1 isoform 1, residues 665-694) (domain or fragment)” belongs 10.6 µM.
167 bp Widom DNA showed a Kd in data set [2] of 0.25 µM.
For the substance “MBP-ecHOP1 CM1-1 (closure motif 1 of ecHOP1 isoform 1, residues 567-600) (domain or fragment)”, the Kd in data set [1] was 7.2 µM.

These data come from article doi:10.1101/2024.12.18.629156.
